# Reference: the RNAGym collection of RNA variant scans (doi:10.7554/elife.90254)
# B1: LINE1-full (parent)
# chain: UACGUAGGUGGUUUUCCCCUGAUAGUGCUAAGGGGGCCUGGAAGUUUGGACUGGGCAGAGCUCAACACAGCGUGGCAAAGUGGCUGUGGCUAGACUGCCUCUCUGGAUUCCUCGUCACUCAGCAGGGCAUCUCUGAGAGAAAUGCC
# Variants of: B1
# Test: self-cleavage, relative activity (ratio to wild type); higher = more cleavage; in vitro, sequencing; the parent is a self-cleaving ribozyme
row,Variant,self-cleavage
1,UACGUAGGUGGUUUUCCCCUGAUAGUGCUAAGGGGGCCCCGAAGUUUGGACUGGGCAGAGCUCAACACAGCGUGGCAAAGUGGCUGUGGCUAGACUGCCUCUCUGGAUUCCUCGUCACUCAGCAGGGCAUCUCUGAGAGAAAUGCC [U39C G40C],1.48
2,UACGUAGGUGGUUUUCCCCUGAUAGUGCUAAGGGGGCCCGGAAGUUUGGACUGGGCAGAGCUCAACACAGCGUGGCAAAGUGGCUGUGGCUAGACUGCCUCUCUGGAUUCCUCGUCACUCAGCAGGUCAUCUCUGAGAGAAAUGCC [U39C G127U],0.87
3,UACGUAGGUGGUUUUCCCCUGAUAGUGCUAAGGGGGCCCGGAAGUUUGGACUGGGCAGAGCUCAACACAGCGUGGCAAAGUGGCUAUGGCUAGACUGCCUCUCUGGAUUCCUCGUCACUCAGCAGGGCAUCUCUGAGAGAAAUGCC [U39C G86A],0.09
4,UACGUAGGUGGUUUUCCCCUGAUAGUGCUAAGGGGGCCCGGAAGUUUGGACUGGGCAGAGCUCAACACAGCGUGGCAAAGUGUCUGUGGCUAGACUGCCUCUCUGGAUUCCUCGUCACUCAGCAGGGCAUCUCUGAGAGAAAUGCC [U39C G83U],0.52
5,UACGUAGGUGGUUUUCCCCUGAUAGUGCUAAGGGGGCCCGGAAGUUUGGACUGGGCAGAGCUCAACACAGCGUGGCAAAGUGGCUGUGGCUAGACUGCCUCUCUGGAUUCCUCGUCACUCAGCAGAGCAUCUCUGAGAGAAAUGCC [U39C G126A],1.18
6,UACGUAGGUGGUUUUCCCCUGAUAGUGCUAAGGGGGCCCGGAAGUUUGGACUGGGCAGAGCUCAACACAGCGUGGCAAAGUGGCUGUGGCUAGACUGCCUCUCUGGAUUCCUCGUCACUCACCAGGGCAUCUCUGAGAGAAAUGCC [U39C G122C],0.96
7,UACGUAGGUGGUUUUCCCCUGAUAGUGCUAAGGGGGCCCGGAAGUUUGGACUGGGCAGAGCUCAACACAGCGUGGCAAAGUGGCUGUGGCUAGACUGCCUCUCUGGAUUCCUCGUCACUCAGCAGGGCAUCUCUGAGAAAAAUGCC [U39C G139A],0.58
8,UACGUAGGUGGUUUUCCCCUGAUAGUGCUAAGGGGGCCCGGAAGUUUGGACUGGGCAGAGCUCAACACAGCGUGGCAAAGUGGCUGUGGCUAGACUGCCUCUCUGGAUUCCUCGUCACUCAGCAGGGCAUCUCUGAGAUAAAUGCC [U39C G139U],0.42
9,UACGUAGGUGGUUUUCCCCUGAUAGUGCUAAGGGGGCCCGGAAGUUUGGACUGGGCAGAGCUCAACACAGCGUGGCAAAGUGGCUGUGGGUAGACUGCCUCUCUGGAUUCCUCGUCACUCAGCAGGGCAUCUCUGAGAGAAAUGCC [U39C C90G],0.03
10,UACGUAGGUGGUUUUCCCCUGAUAGUGCUAAGGGGGCCCGGAAGUUUGGACUGGGCAGAGCUCAACACAGCGUGGCAAAGUGGCUGUGGUUAGACUGCCUCUCUGGAUUCCUCGUCACUCAGCAGGGCAUCUCUGAGAGAAAUGCC [U39C C90U],0.07
11,UACGUAGGUGGUUUUCCCCUGAUAGUGCUAAGGGGGCCCGGAAGAUUGGACUGGGCAGAGCUCAACACAGCGUGGCAAAGUGGCUGUGGCUAGACUGCCUCUCUGGAUUCCUCGUCACUCAGCAGGGCAUCUCUGAGAGAAAUGCC [U39C U45A],0.87
12,UACGUAGGUGGUUUUCCCCUGAUAGUGCUAAGGGGGCCCGGAAGGUUGGACUGGGCAGAGCUCAACACAGCGUGGCAAAGUGGCUGUGGCUAGACUGCCUCUCUGGAUUCCUCGUCACUCAGCAGGGCAUCUCUGAGAGAAAUGCC [U39C U45G],1.17
13,UACGUAGGUGGUUUUCCCCUGAUAGUGCUAAGGGGGCCCGGAAGUUUGGACUGGGCAGAGCUCAACACAGCAUGGCAAAGUGGCUGUGGCUAGACUGCCUCUCUGGAUUCCUCGUCACUCAGCAGGGCAUCUCUGAGAGAAAUGCC [U39C G72A],1.07
14,UACGUAGGUGGUUUUCCCCUGAUAGUGCUAAGGGGGCCCGGAAGUUUGGACUGGGCAGAGCUCAACACAGCGUGGCAAAGUGGCUGUGGCUAGACUGCCUCUCUGGAUUCCUCAUCACUCAGCAGGGCAUCUCUGAGAGAAAUGCC [U39C G114A],1.04
15,UACGUAGGUGGUUUUCCCCUGAUAGUGCUAAGGGGGCCCGGAAGUUUGGACUGGGCAGAGCUCAACACAGCGUGGCAAAGUGGCUGUGGCUAGACUGCCUCUCUGGAUUCCUCGUUACUCAGCAGGGCAUCUCUGAGAGAAAUGCC [U39C C116U],1.05
16,UACGUAGGUGGUUUUCCCCUGAUAGUGCUAAGGGGGCCCGGAAGUUUGGACUGGGCAGAGCUCAACACAGCGCGGCAAAGUGGCUGUGGCUAGACUGCCUCUCUGGAUUCCUCGUCACUCAGCAGGGCAUCUCUGAGAGAAAUGCC [U39C U73C],2.09
17,UACGUAGGUGGUUUUCCCCUGAUAGUGCUAAGGGGGCCCGGAAGUUUGGACUGGGCAGAGCUCAACACAGCGGGGCAAAGUGGCUGUGGCUAGACUGCCUCUCUGGAUUCCUCGUCACUCAGCAGGGCAUCUCUGAGAGAAAUGCC [U39C U73G],1.08
18,UACGUAGGUGGUUUUCCCCUGAUAGUGCUAAGGGGGCCCGGAAGUUUGGACUGGGCAGAGCUCAACACAGCGAGGCAAAGUGGCUGUGGCUAGACUGCCUCUCUGGAUUCCUCGUCACUCAGCAGGGCAUCUCUGAGAGAAAUGCC [U39C U73A],1
19,UACGUAGGUGGUUUUCCCCUGAUAGUGCUAAGGGGGCCCGGAAGUUUGGACUUGGCAGAGCUCAACACAGCGUGGCAAAGUGGCUGUGGCUAGACUGCCUCUCUGGAUUCCUCGUCACUCAGCAGGGCAUCUCUGAGAGAAAUGCC [U39C G53U],1.26
20,UACGUAGGUGGUUUUCCCCUGAUAGUGCUAAGGGGGCCCGGAAGUUUGGACUGGGCAGAGCUCAACACAGCGUGACAAAGUGGCUGUGGCUAGACUGCCUCUCUGGAUUCCUCGUCACUCAGCAGGGCAUCUCUGAGAGAAAUGCC [U39C G75A],0.83
